Experimental data taken from the RNAGym collection of RNA variant scans (doi:10.1073/pnas.2313332121).
Variants at the floor of the assay were thinned out.

B1: TPR 5TU (parent)
chain: GGAUCUUCUCGAUCUAACAAAAAAGACAAAUCUGCCACAAAGCUUGAGAGCAUCUUCGGAUGCAGAGGCGGCAGCCUUCGGUGGCGCGAUAGCGCCAACGUUCUCAACUAUGACACGCAAAACGCGUGCUCCGUUGAAUGGAGUUUAUCAUG

Variants of: B1
Experiment: polymerase ribozyme fitness, log enrichment relative to wild type (log ratio); higher = more active; in vitro selection for triplet polymerase activity
Summary of the method: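 Input and output libraries were sequenced on Illumina after a single in vitro selection round, run in triplicate on PCR-built, transcribed mutant libraries of each subunit of a heterodimeric triplet polymerase ribozyme. Selection annealed libraries to a biotinylated primer, the partner subunit and triplets, incubated them frozen at −7 °C, then gel-excised extended constructs for streptavidin-bead capture and RT-PCR. Genotypes with ≥10 input reads and ≥1 read per output were kept. Fitness is the logarithm, taken in base 2, of genotype enrichment divided by wild-type enrichment, using inverse-variance-weighted replicate averages.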

| Variant | polymerase ribozyme fitness (log ratio) |
| --- | --- |
| G68C C93U | -4.04 |
| C85U A147U | -0.285 |
| G25A A41U C43U C54U U55A G70A G92A G133U U139G | ≤ -4.2 |
| U53G C95U U139G | -1.58 |
| A41U C95U C99A U146G | -2.29 |
| A30C C93U | ≤ -4.2 |
| A12U G50A C85A C87U G133C | ≤ -4.2 |
| A22U C35A G65A C69A C116U G117C | -3.86 |
| A29U G62C G70A A137U A138C | ≤ -4.2 |
| C35U A147C | -0.582 |
| A60G G83C | -0.826 |
| C35A A40U A49G C87A G112C | ≤ -4.2 |
| G25A A49G C95U | -2.94 |
| A19G A26G | -3.57 |
| A12G C14U C79G C132A A142U | ≤ -4.2 |
| C72G A73C U102G C103G | ≤ -4.2 |
| A20U A21U A41C A47U G58U U104A | -2.77 |
| U53A C76U A142G | -2.87 |
| C63U C99G | -1.04 |
| U15A A91G G100C | ≤ -4.2 |
| A20U U55G C96U U134G U144G | -3.67 |

| Variant | polymerase ribozyme fitness (log ratio) |
| --- | --- |
| A30G A60C A110G A113U A150G | ≤ -4.2 |
| A49C A52G C93U A119U | ≤ -4.2 |
| U102G C116U | -2.66 |
| G80A A97G | -1.88 |
| A98U A115C G143A | -3.88 |
| A26U U55A | -1.66 |
| A19C A91U | -3.83 |
| C35A G94C A106G | -3.77 |
| A26U U33G C38U A40C U56A G83A A89G A97G G141C | ≤ -4.2 |
| G84A G126A | 0.571 |
| A12C A52G C93U U101C C105U | -2.54 |
| G59A C123U G136C C149G | -4.17 |
| C54G G58A A89U A98G G133C | -2.63 |
| A20U C85U | -1.3 |
| A22C G46A C76U | ≤ -4.2 |
| A49U G50U U53G A106U A122G | ≤ -4.2 |
| A24C C96G C118A | -4.19 |
| U15G U53A C95A | -1.48 |
| G67U G70U G81A G83U A97U | ≤ -4.2 |
| A21U A29G C32A A64U G68U G84U A121U | ≤ -4.2 |
| A29U A40G U53A C95G | ≤ -4.2 |

| Variant | polymerase ribozyme fitness (log ratio) |
| --- | --- |
| U7A A30U C32U C43U A60U C96A A107U | -3.92 |
| A41G A66C A89C G92U A97U G124U | ≤ -4.2 |
| A12G A20U A41C C57A A66U C69G A91U C129U | ≤ -4.2 |
| G11C C93U U101G G128U | -3.85 |
| C14G A17C A22U U44A G83C C118A U134C | ≤ -4.2 |
| C87U A150G | -1.2 |
| A20G A91U G124U | ≤ -4.2 |
| U53A C95A | -0.902 |
| A37G C114U | -2.87 |
| A119G G143A | 1.13 |
| A40U G50C A91G U104A | ≤ -4.2 |
| G68A C116A C123U | ≤ -4.2 |
| C14G U44G U53A C75A U90C C93U | ≤ -4.2 |
| C35U C93G G126A C131U U139A | -4.11 |
| A39U A49U | -4.19 |
| C96U G140C | -3.73 |
| C54A U77G C85U C93G G117C G136A | ≤ -4.2 |
| U7A C93G | ≤ -4.2 |
| G46C C54U | -0.821 |
| C54G G86U U135A U139A | ≤ -4.2 |
| C57A C69A C72U C85A | -3.55 |

| Variant | polymerase ribozyme fitness (log ratio) |
| --- | --- |
| U82A G88A A115U A121U | ≤ -4.2 |
| G68C A97U U102A | ≤ -4.2 |
| U146A U148A | -3.37 |
| A24U G84C C114U G140U | ≤ -4.2 |
| A21G A138G | -3.38 |
| A41U G42C C76G | ≤ -4.2 |
| A21C C27A C43U A89U G92U G126A U145A U151C | ≤ -4.2 |
| C76U C95U C96U G124U | -1.17 |
| C76U C103A G141C | -4.16 |
| U15A A17U G65U | ≤ -4.2 |
| U44A G86C A120C U146C | ≤ -4.2 |
| A66G C76A | -3.94 |
| C5A C75U U90C A91G A150G | ≤ -4.2 |
| C8G C10A A40C G67A C75A C87A | ≤ -4.2 |
| A12U A41C | -0.744 |
| C57G C85A | -3.21 |
| G50C G83C G94A C132U U135C A142U | ≤ -4.2 |
| G68A G74A U90C | ≤ -4.2 |
| A21G G124C | -0.489 |
| U6G C57A U61A G65A A121U G126A | -3.12 |
| A22C G65C G80U A91G | ≤ -4.2 |
